Laboratory results taken from patent US20220283173A1.

Legend:
Anti-Mx1-AF488 [1] = test: competitive TR-FRET; unlabelled MxA at 0.098 (unit µ/mL [sic]) displacing Mx1-L4 from Anti-Mx1-AF488
Anti-Mx1-AF488 [2] = test: competitive TR-FRET; unlabelled MxA at 1.563 (unit µ/mL [sic]) displacing Mx1-L4 from Anti-Mx1-AF488
Anti-Mx1-AF488 [3] = test: competitive TR-FRET; unlabelled MxA at 0.391 (unit µ/mL [sic]) displacing Mx1-L4 from Anti-Mx1-AF488
Anti-Mx1-AF488 [4] = test: competitive TR-FRET; unlabelled MxA at 0.006 (unit µ/mL [sic]) displacing Mx1-L4 from Anti-Mx1-AF488
Anti-Mx1-AF488 [5] = test: competitive TR-FRET; unlabelled MxA at 25.000 (unit µ/mL [sic]) displacing Mx1-L4 from Anti-Mx1-AF488
Anti-Mx1-AF488 [6] = test: competitive TR-FRET; unlabelled MxA at 0.000 (no competitor, the reference R0) with Mx1-L4 and Anti-Mx1-AF488
Anti-Mx1-AF488 [7] = test: competitive TR-FRET; unlabelled MxA at 0.024 (unit µ/mL [sic]) displacing Mx1-L4 from Anti-Mx1-AF488
Anti-Mx1-AF488 [8] = test: competitive TR-FRET; unlabelled MxA at 6.250 (unit µ/mL [sic]) displacing Mx1-L4 from Anti-Mx1-AF488

B1: Human myxovirus resistance protein A (MxA), unlabelled standard (protein)
chain: MVVSEVDIAKADPAAASHPLLLNGDATVAQKNPGSVAENNLCSQYEEKVRPCIDLIDSLRALGVEQDLALPAIAVIGDQSSGKSSVLEALSGVALPRGSGIVTRCPLVLKLKKLVNEDKWRGKVSYQDYEIEISDASEVEKEINKAQNAIAGEGMGISHELITLEISSRDVPDLTLIDLPGITRVAVGNQPADIGYKIKTLIKKYIQRQETISLVVVPSNVDIATTEALSMAQEVDPEGDRTIGILTKPDLVDKGTEDKVVDVVRNLVFHLKKGYMIVKCRGQQEIQDQLSLSEALQREKIFFENHPYFRDLLEEGKATVPCLAEKLTSELITHICKSLPLLENQIKETHQRITEELQKYGVDIPEDENEKMFFLIDKVNAFNQDITALMQGEETVGEEDIRLFTRLRHEFHKWSTIIENNFQEGHKILSRKIQKFENQYRGRELPGFVNYRTFETIVKQQIKALEEPAVDMLHTVTDMVRLAFTDVSIKNFEEFFNLHRTAKSKIEDIRAEQEREGEKLIRLHFQMEQIVYCQDQVYRGALQKVREKELEEEKKKKSWDFGAFQSSSATDSSMEEIFQHLMAYHQEASKRISSHIPLIIQFFMLQTYGQQLQKAMLQLLQDKDTYSWLLKERSDTSDKRKFLKERLARLTQARRRLAQFPG
In the case of B1, the R/R0 (Anti-Mx1-AF488 [1]) is reported as 0.97, the R/R0 (Anti-Mx1-AF488 [2]) is reported as 0.72 and the R/R0 (Anti-Mx1-AF488 [3]) is reported as 0.89. It also gave a R/R0 (Anti-Mx1-AF488 [4]) of 0.94, a R/R0 (Anti-Mx1-AF488 [5]) of 0.32 and a R/R0 (Anti-Mx1-AF488 [6]) of 1. For the same binder, the R/R0 (Anti-Mx1-AF488 [7]) was 0.99 and the R/R0 (Anti-Mx1-AF488 [8]) was 0.43.
